Read-outs that look alike come from different tables or passages of the source.
Assays:
[1] = molecular target: these 4 clones (3.10C2, 3.27H7, 3.18E5 and 3.50G1), SPR screening; experiment: SPR
[2] = molecular target: human TREM2 extracellular domain (ECD) (Homo sapiens, UniProt Q9NZC2)
[3] = molecular target: T1, human TREM2 on live cells (Homo sapiens, UniProt Q9NZC2)
[4] = molecular target: T1, human TREM2 on live cells; experiment: flow cytometry on cells
[5] = molecular target: T2, peptide with the entire TREM2 stalk region (Homo sapiens, UniProt Q9NZC2, biotinylated at the amino-terminus); experiment: ELISA
T2 chain: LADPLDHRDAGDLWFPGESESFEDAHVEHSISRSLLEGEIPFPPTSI

[6] = molecular target: T3, TREM2 peptide 149-168 (Homo sapiens, UniProt Q9NZC2, biotinylated at the amino-terminus); experiment: ELISA
T3 chain: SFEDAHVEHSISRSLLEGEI

[7] = molecular target: T4, TREM2 peptide 149-161, wild type (Homo sapiens, UniProt Q9NZC2); experiment: BLI
T4 chain: SFEDAHVEHSISR

[8] = molecular target: T5, 18-mer TREM2 peptide (148-165) (Homo sapiens, UniProt Q9NZC2); experiment: crystal structure
T5 chain: ESFEDAHVEHSISRSLLE

B1: human TREM2 extracellular domain (ECD) (domain or fragment)
chain: HNTTVFQGVAGQSLQVSCPYDSMKHWGRRKAWCRQLGEKGPCQRVVSTHNLWLLSFLRRWNGSTAITDDTLGGTLTITLRNLQPHDAGLYQCQSLHGSEADTLRKVLVEVLADPLDHRDAGDLWFPGESESFEDAHVEHSISRSLLEGEIPFPPTS
B1 gave a Kd [1] of 140 to 670 pM.

B2: 3.10A7 (antibody, V domains shown)
VH: AVQLVESGGGLVQPKESLKISCAASGITFSNAAMFWVRQAPGKGLEWVARIRTKPNNYATNYADSVKGRFTISRDDSKSMVYLQMDNLKTEDTAMYYCTAGTTVVPFDYWGQGVMVTVSS
VL: DIVMTQSPSSLAVSAGETVTIDCKSSQSLLYSGNQKTYLAWYQQKPGQSPKLLIYWASTRQSGVPDRFIGSGSGTDFTLTISSVQAEDLAIYYCQQYYDTPLTFGSGTKLEIK
B2: binds [2]; binds [3].

B3: 3.21B10 (antibody, V domains shown)
VH: AVQLIESGGGLVQPKGSLKISCAASGFTFSDAAMFWVRQAPGKGLEWIARIRTKPNNYATYYADSVRGRFTISRDDSKSMVYLQMDNLKTDDTAMYYCIEGVNYGGSPFVYWGQGTLVTVSS
VL: DIVMTQSPSSLAVSAGETVTINCKSSQSLLYSGNQKSYLAWYQQKPGQSPKLLIYWASTRQSGVPDRFIGSVSGTDFTLTISSVQAEDLAIYYCQQYYDIPLTFGSGTKVEIK
B3: binds [2]; binds [3].

B4: antibody 3.41B10 (antibody, V domains shown)
VH: AVQLVESGGGLVQPKESLKISCEASGFTFTNAAMNWVRQAPGKGLEWVARIRTKPNNYRTYYADSVRGRFTISRDDSKSMVHLQMDNLKTEDTAMYYCTGEGPQGGFVYWGQGTLVTVSS
VL: DIVMTQSPSSLTVSAGGTVTINCKSSQSLLYSGDRKNYLAWYQQKPGQSPKLLIYWSSTRQSGVPDRFIGSGSGTDFTLTISSVQAEDLAIYYCQQYYDSPLTFGSGTKLDIK
B4: binds [4].

B5: antibody 3.27H7 (antibody, V domains shown)
VH: EVQLVETGGSLVQPGGSLKLTCATSGFPFSNVWLHWIRRSPEKQLEWVAQIKARSDNYATYYAESVKGRFIVSRDDSKTTIYLQMNNLKEEDTAIYYCTGLDYWGQGVMVTVSS
VL: DVVLTQAPLSVSVTPGESASISCRSSRSLLTSKGITSLYWYLQKPGMSPHLLIYRMSNLASGIPDRFSGSGSETDFTLKISEVEPEDVGVYYCAQFLVYPYTFGAGTKLELK
B5: binds [4].

B6: antibody 3.18E5 (antibody, V domains shown)
VH: EVQLVETGGSLVQPGKSLKLTCATSGFPFSNVWMHWVRQSPEKQLEWIAHIKAKSDNYATYYAESVKGRFTISRDDSKTTIYLQMNSLKEADTAIYYCTGLDYWGQGVMVTVSS
VL: DTVLTQAPLSVSVTPGESASISCRSNKSLLGIRDITSLYWYLQKPGKSPQLLIYRMSNLASGVPDRFSGSGSETDFTLKISEVETEDVGVYYCAQFLRYPYTFGPGTKLELK
B6: binds [4].

B7: antibody 3.50G1 (antibody, V domains shown)
VH: EVQLVETGGSLVQPGKSLKLTCATSGFPFSNVWMHWVRQSPEKQLEWIAHIKAKSDNYATYYAESVKGRFTISRDDSKTSIYLQMNSLKDDDTAIYYCTGLDYWGQGVMVTVSS
VL: DTVLTQAPLSVSVTPGESASISCRSNKSLLGIRDITSLYWFLQKPGKSPQLLIYRMSNLASGVPDRFSGSGSETDFTLKISEVETEDVGVYYCAQFLRYPYTFGPGTKLELQ
B7: binds [4].

B8: antibody Para.09 (IgG, with the light chain of 3.10C2) (antibody, V domains shown)
VH: EVQLVETGGSLVQPGKSLRLTCATSGFPFSNVWLHWVRQSPEKHPEWVAHIKAKSDNYATYYAESVKGRFTISRDDSKSSVFLQMNSLKEEDTAIYYCTDILEYWGQGTLVTVSS
VL: DTVLTQAPLSLSVTPGESASISCRSSKSLLGVRDITSLYWYLQKPGKSPQLLIYRMSNLASGVPDRFSGSGSETDFTLKISEVETEDVGVYYCAQFLRYPYTFGPGTKLELK
B8: binds [5]; binds [6].

B9: Fab fragment of antibody 3.10C2 (Fab, V domains shown)
VH: EVQLVETGGSLVQPGKSLKLTCATSGFPFSNVWMHWVRQSPEKQLEWIAHIKAKSDNYATYYAESVKGRFTISRDDSKTSIYLQMNSLKEDDTAIYYCTGLDYWGQGVMVTVSS
VL: DTVLTQAPLSLSVTPGESASISCRSSKSLLGVRDITSLYWYLQKPGKSPQLLIYRMSNLASGVPDRFSGSGSETDFTLKISEVETEDVGVYYCAQFLRYPYTFGPGTKLELK
B9: binds [7].

B10: Fab fragment of antibody Para.09 (Fab, V domains shown)
VH: EVQLVETGGSLVQPGKSLRLTCATSGFPFSNVWLHWVRQSPEKHPEWVAHIKAKSDNYATYYAESVKGRFTISRDDSKSSVFLQMNSLKEEDTAIYYCTDILEYWGQGTLVTVSS
VL: DTVLTQAPLSLSVTPGESASISCRSSKSLLGVRDITSLYWYLQKPGKSPQLLIYRMSNLASGVPDRFSGSGSETDFTLKISEVETEDVGVYYCAQFLRYPYTFGPGTKLELK
B10: binds [7].

B11: huPara.09 Fab fragment (Fab, V domains shown)
VH: EVQLVESGGGLVQPGGSLKLSCATSGFPFSNVWLHWVRQASGKGPEWVAHIKAKSDNYATYYAESVKGRFTISRDDSKNTVYLQMNSLKTEDTAVYYCTDILEYWGQGTLVTVSS
VL: DVVMTQSPLSLPVTPGEPASISCRSSRSLLTSKGITSLYWYLQKPGQSPQLLIYRMSNLASGIPDRFSGSGSGTDFTLKISRVEAEDVGVYYCAQFLVYPYTFGPGTKVEIK
B11: binds [8].

Source: paper PMC11437124 (Nature Communications, 2024)
